The test has as its target T1, recombinant BB0347 (Borrelia burgdorferi).
T1 construct: also called rBB0347; source: E. coli Rosetta(DE3)pLysS, pET200, purified (MagneHis nickel particles, dialysed into PBS)
Nature of the test: ELISA; FnHBD assay: coated plate treated with varying concentrations of rBB0347, 37°C, 1.5 h; detected with rabbit polyclonal anti-BB0347; KD = concentration of added protein at half-maximal binding, assuming saturation. Conditions: both partners purified. (In general: In an ELISA, binding on a coated surface is turned into a signal by an enzyme label.)

B1: peptide fragment containing the CS1 heparin-binding domain (HBD) of human Fn (domain or fragment)
chain: AIPAPTDLKFTQVTPTSLSAQWTPPNVQLTGYRVRVTPKEKTGPMKEINLAPDSSSVVVSGLMVATKYEVSVYALKDTLTSRPAQGVVTTLENVSPPRRARVTDATETTITISWRTKTETITGFQVDAVPANGQTPIQRTIKPDVRSYTITGLQPGTDYKIYLYTLNDNARSSPVVIDASTAIDAPSNLRFLATTPNSLLVSWQPPRARITGYIIKYEKPGSPPREVVPRPRPGVTEATITGLEPGTEYTIYVIALKNNQKSEPLIGRKKT
For the molecule B1, the dissociation constant (Kd) (usually the equilibrium constant for the complex coming apart) was 180 ± 14 nM.

Values taken from article PMC3785480, “BB0347, from the Lyme Disease Spirochete Borrelia burgdorferi, Is Surface Exposed and Interacts with the CS1 Heparin-Binding Domain of Human Fibronectin” (PLoS ONE, 2013).
